Patent publication US20240279350A1

Molecular target: human CD40 on cells (human) (UniProt P25942)
Experiment: cell-based or functional assay

Sequence of human CD40 on cells (human) (P25942 21-277 limits assumed): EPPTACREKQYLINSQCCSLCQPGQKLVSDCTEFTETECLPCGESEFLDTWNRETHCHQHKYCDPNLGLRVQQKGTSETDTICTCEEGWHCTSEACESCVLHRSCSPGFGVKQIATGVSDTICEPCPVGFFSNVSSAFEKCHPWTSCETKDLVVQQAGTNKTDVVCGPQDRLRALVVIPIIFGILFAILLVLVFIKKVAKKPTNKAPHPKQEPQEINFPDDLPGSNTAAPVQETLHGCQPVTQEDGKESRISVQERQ

“Hexameric CD40L (from UniProt P29965 116-261) (ligand)” was tested. Which EC50, CD83 expression, MoDC maturation assay did it give?
The EC50, CD83 expression, MoDC maturation assay was 0.24 nM.

What about the EC50, IL-8 release, MoDC maturation assay of the same substance?
Its EC50, IL-8 release, MoDC maturation assay is 0.33 nM.
